The values that follow come from US20140087995A1 (published 2014).

Like-named read-outs stand apart in the source and are kept apart here. Numbered stars: 1 amine (or outer) side, 2 acyl side, 3 side chain; on linkers, the order of the positions; unused ones are H or OH. Bridge positions count the residues as written; N and C are the ends. Side chains are listed from the residue outwards. Ends that are not written are not given here. * marks the point of attachment. C20 diacid = O=C(O)CCCCCCCCCCCCCCCCCCC(=O)*; γGlu = O=C(O)[C@H](CCC(=O)[*:2])N[*:1]

In assay [1] the target is T1, human calcitonin receptor (human, UniProt P30988 25-474).
T1 sequence (looked up): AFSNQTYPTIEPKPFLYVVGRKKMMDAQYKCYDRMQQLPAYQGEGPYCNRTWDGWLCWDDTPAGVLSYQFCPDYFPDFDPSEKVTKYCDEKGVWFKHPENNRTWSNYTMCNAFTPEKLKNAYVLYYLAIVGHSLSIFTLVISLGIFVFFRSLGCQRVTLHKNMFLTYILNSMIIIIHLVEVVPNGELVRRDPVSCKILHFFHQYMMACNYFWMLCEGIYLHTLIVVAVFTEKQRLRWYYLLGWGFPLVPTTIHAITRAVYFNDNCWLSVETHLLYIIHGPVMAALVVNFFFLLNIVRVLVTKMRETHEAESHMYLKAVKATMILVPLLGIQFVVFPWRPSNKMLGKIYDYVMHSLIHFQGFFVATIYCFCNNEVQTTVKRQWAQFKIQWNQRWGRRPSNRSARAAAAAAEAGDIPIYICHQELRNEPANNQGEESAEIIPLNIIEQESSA
The experiment in a line: cell-based or functional assay.

Assay [2] has as its target T2, human amylin 3(a) receptor (human calcitonin receptor + RAMP-3) (human, UniProt P30988 25-474; O60896 24-148, limits assumed).
T2 sequence (looked up) 1: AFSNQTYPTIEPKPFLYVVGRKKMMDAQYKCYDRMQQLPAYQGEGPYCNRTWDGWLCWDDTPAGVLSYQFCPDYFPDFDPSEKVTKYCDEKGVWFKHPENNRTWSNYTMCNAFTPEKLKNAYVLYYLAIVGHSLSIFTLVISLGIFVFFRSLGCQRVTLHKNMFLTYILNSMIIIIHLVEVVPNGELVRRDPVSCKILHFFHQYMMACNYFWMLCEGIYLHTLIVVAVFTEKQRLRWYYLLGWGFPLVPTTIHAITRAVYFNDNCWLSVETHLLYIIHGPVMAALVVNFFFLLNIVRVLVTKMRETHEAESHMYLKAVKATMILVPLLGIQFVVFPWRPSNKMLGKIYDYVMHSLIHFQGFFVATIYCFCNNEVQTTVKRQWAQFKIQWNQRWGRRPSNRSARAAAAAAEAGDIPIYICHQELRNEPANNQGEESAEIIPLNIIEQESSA
T2 sequence (looked up) 2: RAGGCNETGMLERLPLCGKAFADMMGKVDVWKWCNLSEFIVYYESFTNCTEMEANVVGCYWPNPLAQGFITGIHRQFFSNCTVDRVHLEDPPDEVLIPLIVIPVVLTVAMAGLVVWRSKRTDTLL
The experiment in a line: cell-based or functional assay.

The target in assay [3] is T2, human amylin 3(a) receptor (human …). Description: SPA competition binding, membranes of BHK cells with human calcitonin receptor + RAMP-3, displacement of 125I-rat amylin (Assay V). On the procedure: (§1) The binding assay was performed using scintillation proximity assay (SPA) beads (RPNQ0001) from PerkinElmer and cell membranes from the Amylin 3(a)/CRE-luc cells (as described in Assay (II)) were used. Membranes were prepared in the following way; the cells were rinsed with PBS and incubated with Versene for approximately 5 min before harvesting. The cells were flushed with PBS and the cell-suspension was centrifuged for 5 min at 1000 rpm. Cells were homogenized (ultrathurrax) in a buffer containing 20 mM Na-HEPES and 10 mM EDTA (pH 7.4) and centrifuged at 20.000 rpm for 15 min. The resulting pellet was resuspended, homogenized and centrifuged (20.000 rpm, 15 min) in a buffer containing 20 mM Na-HEPES and 0.1 mM EDTA (pH 7.4, buffer 2). The resulting pellet was resuspended in buffer 2 and protein concentration was measured (BCA protein Assay, Pierce). The homogenate was kept cold during the whole procedure. The membranes were kept at −80° C. until use. The assay was performed in a 384 well Optiplate (PerkinElmer) in a total volume of 40 ul. Membranes were mixed with SPA beads. Final concentration of membranes 35 ng/μL final and SPA beads was 0.05 mg/well. Test-compounds were dissolved in DMSO and further diluted in assay buffer (50 mM Hepes, pH 7.4, 1 mM CaCl2, 5 mM MgCl₂, 0.1% OA and 0.02% Tween20). […] The final mixture was incubated with shaking at 400 rpm for 120 min at 25° C. prior to centrifugation (1500 rpm, 10 min). Samples were analyzed on TopCounter™ (Packard). The IC₅₀ was calculated using (one site binding competition analysis) GraphPad Prism5 as a measure of receptor affinity.

Assay [4] concerns the target T3, human calcitonin receptor (human, UniProt P30988 25-474).
T3 sequence (looked up): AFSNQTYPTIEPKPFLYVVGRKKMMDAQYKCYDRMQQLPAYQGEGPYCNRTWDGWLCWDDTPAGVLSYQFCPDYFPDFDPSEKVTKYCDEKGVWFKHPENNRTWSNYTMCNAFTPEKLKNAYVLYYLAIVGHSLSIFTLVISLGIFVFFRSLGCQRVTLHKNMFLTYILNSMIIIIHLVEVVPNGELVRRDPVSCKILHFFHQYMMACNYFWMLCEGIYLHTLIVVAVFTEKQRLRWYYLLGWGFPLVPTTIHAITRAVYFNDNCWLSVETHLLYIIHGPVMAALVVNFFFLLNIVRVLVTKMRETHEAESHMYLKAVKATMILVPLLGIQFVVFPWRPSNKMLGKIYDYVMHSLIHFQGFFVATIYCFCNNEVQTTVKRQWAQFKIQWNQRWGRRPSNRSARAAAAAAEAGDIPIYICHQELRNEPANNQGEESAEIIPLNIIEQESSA
The experiment in a line: cell-based or functional assay. This is another data set of the same source.

For assay [5], the target named is T4, human amylin receptor (amylin 3(a) receptor: human calcitonin receptor coexpressed with RAMP-3) (human, UniProt P30988 25-474; O60896 24-148).
T4 sequence (looked up) 1: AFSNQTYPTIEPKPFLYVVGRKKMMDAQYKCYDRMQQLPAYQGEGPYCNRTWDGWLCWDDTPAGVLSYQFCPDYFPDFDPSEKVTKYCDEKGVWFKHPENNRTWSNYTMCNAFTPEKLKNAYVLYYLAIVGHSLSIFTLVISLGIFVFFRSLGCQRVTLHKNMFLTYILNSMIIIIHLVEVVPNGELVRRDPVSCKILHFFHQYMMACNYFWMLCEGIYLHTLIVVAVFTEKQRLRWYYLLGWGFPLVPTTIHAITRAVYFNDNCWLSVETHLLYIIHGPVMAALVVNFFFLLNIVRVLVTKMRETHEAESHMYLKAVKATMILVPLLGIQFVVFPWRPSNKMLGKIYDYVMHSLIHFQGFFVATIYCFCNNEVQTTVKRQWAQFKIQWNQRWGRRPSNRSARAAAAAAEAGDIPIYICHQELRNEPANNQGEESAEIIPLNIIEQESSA
T4 sequence (looked up) 2: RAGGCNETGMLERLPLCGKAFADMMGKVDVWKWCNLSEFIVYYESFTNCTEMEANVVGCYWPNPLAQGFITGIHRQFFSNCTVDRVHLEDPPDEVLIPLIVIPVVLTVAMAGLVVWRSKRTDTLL
Description: cell-based or functional assay.

For assay [6], the target named is T4, human amylin receptor (amylin 3(a) …). The experiment in a line: SPA competition against 125I-rat amylin, membranes of BHK amylin 3(a)/CRE-luc cells (Assay V). On the procedure:
as §1

What is called IC50 is the concentration that gives 50% inhibition.

B1: N^α1-[(4S)-4-carboxy-4-(19-carboxynonadecanoylamino)butanoyl]-[Glu14,Arg17,Pro21,Pro25,Pro28,Pro29,Pro37]-h-amylin (peptide)
peptide: {C20 diacid-γGlu}-KCNTATCATQRLAEFLRHSSPNFGPILPPTNVGSNTP-NH2
modifications: disulfide 2-7
SMILES: CC[C@H](C)[C@H](NC(=O)[C@@H]1CCCN1C(=O)CNC(=O)[C@H](Cc1ccccc1)NC(=O)[C@H](CC(N)=O)NC(=O)[C@@H]1CCCN1C(=O)[C@H](CO)NC(=O)[C@H](CO)NC(=O)[C@H](Cc1c[nH]cn1)NC(=O)[C@H](CCCNC(=N)N)NC(=O)[C@H](CC(C)C)NC(=O)[C@H](Cc1ccccc1)NC(=O)[C@H](CCC(=O)O)NC(=O)[C@H](C)NC(=O)[C@H](CC(C)C)NC(=O)[C@H](CCCNC(=N)N)NC(=O)[C@H](CCC(N)=O)NC(=O)[C@@H](NC(=O)[C@H](C)NC(=O)[C@@H]1CSSC[C@H](NC(=O)[C@H](CCCCN)NC(=O)CC[C@H](NC(=O)CCCCCCCCCCCCCCCCCCC(=O)O)C(=O)O)C(=O)N[C@@H](CC(N)=O)C(=O)N[C@@H]([C@@H](C)O)C(=O)N[C@@H](C)C(=O)N[C@@H]([C@@H](C)O)C(=O)N1)[C@@H](C)O)C(=O)N[C@@H](CC(C)C)C(=O)N1CCC[C@H]1C(=O)N1CCC[C@H]1C(=O)N[C@H](C(=O)N[C@@H](CC(N)=O)C(=O)N[C@H](C(=O)NCC(=O)N[C@@H](CO)C(=O)N[C@@H](CC(N)=O)C(=O)N[C@H](C(=O)N1CCC[C@H]1C(N)=O)[C@@H](C)O)C(C)C)[C@@H](C)O
notes: disulfide and C-terminal amide as told for human amylin and the amide resins of the synthesis; also called compound 4
Consider B1, for which, in assay [1], the “Ratio hCT/hAmylin funct.” value was 1.2. The “hAmylin-R funct. EC50 (pM)” value in assay [2] worked out at 60 pM. The IC50 in assay [3] was determined as 0.321 nM.

B2: N^ε1-[(4S)-4-carboxy-4-[[(4S)-4-carboxy-4-(19-carboxynonadecanoylamino)butanoyl]amino]butanoyl]-[Glu14,Arg17,Pro21,Pro27,Arg34,Glu35]-h-amylin (peptide)
peptide: K([γGlu-γGlu-C20 diacid])CNTATCATQRLAEFLRHSSPNFGAIPSSTNVGRETY-NH2
modifications: disulfide 2-7; N-terminus assumed
SMILES: CC[C@H](C)[C@H](NC(=O)[C@H](C)NC(=O)CNC(=O)[C@H](Cc1ccccc1)NC(=O)[C@H](CC(N)=O)NC(=O)[C@@H]1CCCN1C(=O)[C@H](CO)NC(=O)[C@H](CO)NC(=O)[C@H](Cc1c[nH]cn1)NC(=O)[C@H](CCCNC(=N)N)NC(=O)[C@H](CC(C)C)NC(=O)[C@H](Cc1ccccc1)NC(=O)[C@H](CCC(=O)O)NC(=O)[C@H](C)NC(=O)[C@H](CC(C)C)NC(=O)[C@H](CCCNC(=N)N)NC(=O)[C@H](CCC(N)=O)NC(=O)[C@@H](NC(=O)[C@H](C)NC(=O)[C@@H]1CSSC[C@H](NC(=O)[C@@H](N)CCCCNC(=O)CC[C@H](NC(=O)CC[C@H](NC(=O)CCCCCCCCCCCCCCCCCCC(=O)O)C(=O)O)C(=O)O)C(=O)N[C@@H](CC(N)=O)C(=O)N[C@@H]([C@@H](C)O)C(=O)N[C@@H](C)C(=O)N[C@@H]([C@@H](C)O)C(=O)N1)[C@@H](C)O)C(=O)N1CCC[C@H]1C(=O)N[C@@H](CO)C(=O)N[C@@H](CO)C(=O)N[C@H](C(=O)N[C@@H](CC(N)=O)C(=O)N[C@H](C(=O)NCC(=O)N[C@@H](CCCNC(=N)N)C(=O)N[C@@H](CCC(=O)O)C(=O)N[C@H](C(=O)N[C@@H](Cc1ccc(O)cc1)C(N)=O)[C@@H](C)O)C(C)C)[C@@H](C)O
For B2, in assay [4], the “Ratio hCT/hAmylin funct.” value is 10.6 and the “hCTR funct. EC50 (pM)” value came to 7430 pM. For the same molecule, in assay [5], the “hAmylin-R funct. EC50 (pM)” value worked out at 703 pM. Moreover, in assay [6], the IC50 was 0.957 nM.

B3: N^ε1-[(4S)-4-carboxy-4-[[(4S)-4-carboxy-4-(19-carboxynonadecanoylamino)butanoyl]amino]butanoyl]-[Glu14,Arg17,Pro21,Pro27,Pro34,Glu35]-h-amylin (peptide)
peptide: K([γGlu-γGlu-C20 diacid])CNTATCATQRLAEFLRHSSPNFGAIPSSTNVGPETY-NH2
modifications: disulfide 2-7; N-terminus assumed
SMILES: CC[C@H](C)[C@H](NC(=O)[C@H](C)NC(=O)CNC(=O)[C@H](Cc1ccccc1)NC(=O)[C@H](CC(N)=O)NC(=O)[C@@H]1CCCN1C(=O)[C@H](CO)NC(=O)[C@H](CO)NC(=O)[C@H](Cc1c[nH]cn1)NC(=O)[C@H](CCCNC(=N)N)NC(=O)[C@H](CC(C)C)NC(=O)[C@H](Cc1ccccc1)NC(=O)[C@H](CCC(=O)O)NC(=O)[C@H](C)NC(=O)[C@H](CC(C)C)NC(=O)[C@H](CCCNC(=N)N)NC(=O)[C@H](CCC(N)=O)NC(=O)[C@@H](NC(=O)[C@H](C)NC(=O)[C@@H]1CSSC[C@H](NC(=O)[C@@H](N)CCCCNC(=O)CC[C@H](NC(=O)CC[C@H](NC(=O)CCCCCCCCCCCCCCCCCCC(=O)O)C(=O)O)C(=O)O)C(=O)N[C@@H](CC(N)=O)C(=O)N[C@@H]([C@@H](C)O)C(=O)N[C@@H](C)C(=O)N[C@@H]([C@@H](C)O)C(=O)N1)[C@@H](C)O)C(=O)N1CCC[C@H]1C(=O)N[C@@H](CO)C(=O)N[C@@H](CO)C(=O)N[C@H](C(=O)N[C@@H](CC(N)=O)C(=O)N[C@H](C(=O)NCC(=O)N1CCC[C@H]1C(=O)N[C@@H](CCC(=O)O)C(=O)N[C@H](C(=O)N[C@@H](Cc1ccc(O)cc1)C(N)=O)[C@@H](C)O)C(C)C)[C@@H](C)O
As for B3, in assay [4], the “Ratio hCT/hAmylin funct.” value is 10.5 and the “hCTR funct. EC50 (pM)” value is 2360 pM. Further, the “hAmylin-R funct. EC50 (pM)” value in assay [5] came out at 225 pM. Besides, in assay [6], the IC50 stood at 0.121 nM.
